From patent US20250388663A1 (INSTITUT NATIONAL DE LA SANT ET DE LA RECHERCHE M DICALE, published 2025)

B1: OptiAlb-11 (VHH)
VHH: EVQLVESGGGLVQPGNSLRLSCAASGFTFSSFGMSWVRQAPGKGPEWVSSISGSGHDTLYADSVKGRFTISRDNAKTTLYLQMNSLRPEDTAVYYCTIGGSLTRSSQGTLVTVSS
notes: not shown: C-terminal histidine- and cMyc-tag from the pHEN6 plasmid

Key:
mouse serum albumin [1] = biological target: T1, mouse serum albumin (mouse, UniProt P07724 25-608); test: SPR (openSPR), control channel blocked with the non-relevant sdAb and ethanolamine, albumin perfused; conditions: scale: % of binding to OptiAlb-12-coated channels
T1 construct: also called MSA; murine serum albumin

[2] = biological target: human serum albumin (human) (UniProt P02768); test: as above; conditions: scale: % of binding to OptiAlb-12-coated channels
mouse serum albumin [3] = biological target: T1, mouse serum albumin; test: ELISA, MSA coated at 2 ug/ml, nanobody titrated, anti-cMyc-HRP detection
Description: After washing wells with PBS/0.1% Tween-20, wells were blocked by incubating with PBS/1% bovine serum albumin (BSA) for 1 h at 37° C. […] After three washes with PBS/0.1% Tween-20, bound proteins were probed using polyclonal peroxidase-labelled anti-cMyc antibodies (1:5,000 dilution), and detected via hydrolysis of 3,3′,5,5′-tetramethylbenzidine.

T1 sequence (P07724 25-608 limits assumed): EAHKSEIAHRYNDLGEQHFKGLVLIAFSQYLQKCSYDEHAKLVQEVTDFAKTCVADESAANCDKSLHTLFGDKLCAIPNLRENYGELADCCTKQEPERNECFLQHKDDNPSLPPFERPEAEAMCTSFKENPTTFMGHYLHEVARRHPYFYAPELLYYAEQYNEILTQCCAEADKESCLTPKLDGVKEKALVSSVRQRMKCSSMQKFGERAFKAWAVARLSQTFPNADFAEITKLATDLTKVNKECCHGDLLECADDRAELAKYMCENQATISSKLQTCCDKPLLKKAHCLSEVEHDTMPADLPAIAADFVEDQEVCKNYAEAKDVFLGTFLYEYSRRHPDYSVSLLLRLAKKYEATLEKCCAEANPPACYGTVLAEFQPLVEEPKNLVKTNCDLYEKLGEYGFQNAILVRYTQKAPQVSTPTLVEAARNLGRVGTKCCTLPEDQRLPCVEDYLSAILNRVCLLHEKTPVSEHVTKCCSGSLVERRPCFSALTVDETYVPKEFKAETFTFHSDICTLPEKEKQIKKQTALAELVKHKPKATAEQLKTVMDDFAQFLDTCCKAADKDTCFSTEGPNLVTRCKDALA

Molecule | binding to the control channel as percent of binding to OptiAlb-12-coated channels (mouse serum albumin [1]) | binding to the control channel as percent of binding to OptiAlb-12-coated channels [2] | binding result (mouse serum albumin [3])
non-relevant single-domain antibody (VHH) | < 3 | < 3 | 
B1 |  |  | binds
